Consider 27 molecules from publication PMC10786891, “Massively parallel profiling of RNA-targeting CRISPR-Cas13d”.

As a reminder, the Kd is the free concentration of one partner at which half of the binding sites on the other are occupied at equilibrium, for simple one-to-one binding. High values mean weaker binding, low ones tighter binding.

T1: EsCas13d, nuclease-dead (Eubacterium siraeum, UniProt B0MS50, R295A;H300A;R849A;H854A)
T1 sequence: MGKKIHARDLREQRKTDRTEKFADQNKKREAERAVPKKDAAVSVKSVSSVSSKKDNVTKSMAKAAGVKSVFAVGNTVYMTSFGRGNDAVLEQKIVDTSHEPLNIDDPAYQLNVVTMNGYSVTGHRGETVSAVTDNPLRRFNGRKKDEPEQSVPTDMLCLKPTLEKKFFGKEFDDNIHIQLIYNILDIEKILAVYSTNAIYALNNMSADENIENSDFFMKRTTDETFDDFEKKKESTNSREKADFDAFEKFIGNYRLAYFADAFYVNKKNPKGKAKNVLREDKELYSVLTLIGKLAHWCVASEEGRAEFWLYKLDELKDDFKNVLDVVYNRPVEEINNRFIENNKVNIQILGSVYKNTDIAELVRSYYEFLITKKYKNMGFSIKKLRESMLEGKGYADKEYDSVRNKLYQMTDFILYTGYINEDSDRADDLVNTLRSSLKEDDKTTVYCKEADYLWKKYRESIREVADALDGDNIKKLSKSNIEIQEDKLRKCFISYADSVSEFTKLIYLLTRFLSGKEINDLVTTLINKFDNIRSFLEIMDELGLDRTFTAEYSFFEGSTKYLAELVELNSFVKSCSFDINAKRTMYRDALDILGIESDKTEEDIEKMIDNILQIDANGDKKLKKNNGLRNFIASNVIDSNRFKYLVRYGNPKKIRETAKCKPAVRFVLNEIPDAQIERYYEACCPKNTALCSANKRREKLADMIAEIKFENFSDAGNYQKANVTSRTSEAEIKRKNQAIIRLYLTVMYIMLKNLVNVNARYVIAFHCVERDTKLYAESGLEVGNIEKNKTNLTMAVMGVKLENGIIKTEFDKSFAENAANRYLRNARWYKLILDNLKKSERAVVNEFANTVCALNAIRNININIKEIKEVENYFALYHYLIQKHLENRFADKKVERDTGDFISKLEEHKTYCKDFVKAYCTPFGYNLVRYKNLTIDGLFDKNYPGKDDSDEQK

B1: target 1 C4U,C6G (mixed)
RNA 1: CACCCGUGCAAAAAUGCAGGGGUCUAAAACUGAGCGGAUAACCUCUCUAUGG
RNA 2: GGGAAUGGAUCCACAUCUACGAAUUCGUACCAUAGAGAGGUUAUCGGUUCACCGAGAUCGGAAGAGCACACGU
B2: target 1 insU 3' of 12,insA 3' of 4 (mixed)
RNA 1: CACCCGUGCAAAAAUGCAGGGGUCUAAAACUGAGCGGAUAACCUCUCUAUGG
RNA 2: GGGAAUGGAUCCACAUCUACGAAUUCGUACCAUAGAGAGGUUUAUCCGCAUCACCGAGAUCGGAAGAGCACACGU
B3: target 1 A9C,G17U (mixed)
RNA 1: CACCCGUGCAAAAAUGCAGGGGUCUAAAACUGAGCGGAUAACCUCUCUAUGG
RNA 2: GGGAAUGGAUCCACAUCUACGAAUUCGUACCAUAUAGAGGUUCUCCGCUCACCGAGAUCGGAAGAGCACACGU
B4: target 1 insC 3' of 14,insA 3' of 5 (mixed)
RNA 1: CACCCGUGCAAAAAUGCAGGGGUCUAAAACUGAGCGGAUAACCUCUCUAUGG
RNA 2: GGGAAUGGAUCCACAUCUACGAAUUCGUACCAUAGAGACGGUUAUCCGACUCACCGAGAUCGGAAGAGCACACGU
B5: target 1 insC 3' of 22,insA 3' of 5 (mixed)
RNA 1: CACCCGUGCAAAAAUGCAGGGGUCUAAAACUGAGCGGAUAACCUCUCUAUGG
RNA 2: GGGAAUGGAUCCACAUCUACGAAUUCGUACCCAUAGAGAGGUUAUCCGACUCACCGAGAUCGGAAGAGCACACGU
B6: target 1 U11A,A20C (mixed)
RNA 1: CACCCGUGCAAAAAUGCAGGGGUCUAAAACUGAGCGGAUAACCUCUCUAUGG
RNA 2: GGGAAUGGAUCCACAUCUACGAAUUCGUACCCUAGAGAGGAUAUCCGCUCACCGAGAUCGGAAGAGCACACGU
B7: target 1 insC 3' of 12,insG 3' of 3 (mixed)
RNA 1: CACCCGUGCAAAAAUGCAGGGGUCUAAAACUGAGCGGAUAACCUCUCUAUGG
RNA 2: GGGAAUGGAUCCACAUCUACGAAUUCGUACCAUAGAGAGGCUUAUCCGCUGCACCGAGAUCGGAAGAGCACACGU
B8: target 1 insA 3' of 13,insA 3' of 5 (mixed)
RNA 1: CACCCGUGCAAAAAUGCAGGGGUCUAAAACUGAGCGGAUAACCUCUCUAUGG
RNA 2: GGGAAUGGAUCCACAUCUACGAAUUCGUACCAUAGAGAGAGUUAUCCGACUCACCGAGAUCGGAAGAGCACACGU
B9: target 1 A9G,G17A (mixed)
RNA 1: CACCCGUGCAAAAAUGCAGGGGUCUAAAACUGAGCGGAUAACCUCUCUAUGG
RNA 2: GGGAAUGGAUCCACAUCUACGAAUUCGUACCAUAAAGAGGUUGUCCGCUCACCGAGAUCGGAAGAGCACACGU
B10: target 1 del4,del11 (mixed)
RNA 1: CACCCGUGCAAAAAUGCAGGGGUCUAAAACUGAGCGGAUAACCUCUCUAUGG
RNA 2: GGGAAUGGAUCCACAUCUACGAAUUCGUACCAUAGAGAGGUAUCCGUCACCGAGAUCGGAAGAGCACACGU
B11: target 1 A16C,C22U (mixed)
RNA 1: CACCCGUGCAAAAAUGCAGGGGUCUAAAACUGAGCGGAUAACCUCUCUAUGG
RNA 2: GGGAAUGGAUCCACAUCUACGAAUUCGUAUCAUAGCGAGGUUAUCCGCUCACCGAGAUCGGAAGAGCACACGU
B12: target 1 U10C,A20U (mixed)
RNA 1: CACCCGUGCAAAAAUGCAGGGGUCUAAAACUGAGCGGAUAACCUCUCUAUGG
RNA 2: GGGAAUGGAUCCACAUCUACGAAUUCGUACCUUAGAGAGGUCAUCCGCUCACCGAGAUCGGAAGAGCACACGU
B13: target 1 insA 3' of 19,insU 3' of 2 (mixed)
RNA 1: CACCCGUGCAAAAAUGCAGGGGUCUAAAACUGAGCGGAUAACCUCUCUAUGG
RNA 2: GGGAAUGGAUCCACAUCUACGAAUUCGUACCAUAAGAGAGGUUAUCCGCUCUACCGAGAUCGGAAGAGCACACGU
B14: target 1 U11G,G17A (mixed)
RNA 1: CACCCGUGCAAAAAUGCAGGGGUCUAAAACUGAGCGGAUAACCUCUCUAUGG
RNA 2: GGGAAUGGAUCCACAUCUACGAAUUCGUACCAUAAAGAGGGUAUCCGCUCACCGAGAUCGGAAGAGCACACGU
B15: target 1 insA 3' of 4,insA 3' of 3 (mixed)
RNA 1: CACCCGUGCAAAAAUGCAGGGGUCUAAAACUGAGCGGAUAACCUCUCUAUGG
RNA 2: GGGAAUGGAUCCACAUCUACGAAUUCGUACCAUAGAGAGGUUAUCCGCAUACACCGAGAUCGGAAGAGCACACGU
B16: target 1 G13A,A18C (mixed)
RNA 1: CACCCGUGCAAAAAUGCAGGGGUCUAAAACUGAGCGGAUAACCUCUCUAUGG
RNA 2: GGGAAUGGAUCCACAUCUACGAAUUCGUACCAUCGAGAAGUUAUCCGCUCACCGAGAUCGGAAGAGCACACGU
B17: target 1 C2G,C7U (mixed)
RNA 1: CACCCGUGCAAAAAUGCAGGGGUCUAAAACUGAGCGGAUAACCUCUCUAUGG
RNA 2: GGGAAUGGAUCCACAUCUACGAAUUCGUACCAUAGAGAGGUUAUUCGCUGACCGAGAUCGGAAGAGCACACGU
B18: target 1 insU 3' of 18,insU 3' of 13 (mixed)
RNA 1: CACCCGUGCAAAAAUGCAGGGGUCUAAAACUGAGCGGAUAACCUCUCUAUGG
RNA 2: GGGAAUGGAUCCACAUCUACGAAUUCGUACCAUAUGAGAGUGUUAUCCGCUCACCGAGAUCGGAAGAGCACACGU
B19: target 1 insA 3' of 19,insU 3' of 18 (mixed)
RNA 1: CACCCGUGCAAAAAUGCAGGGGUCUAAAACUGAGCGGAUAACCUCUCUAUGG
RNA 2: GGGAAUGGAUCCACAUCUACGAAUUCGUACCAUAAUGAGAGGUUAUCCGCUCACCGAGAUCGGAAGAGCACACGU
B20: target 1 insC 3' of 17,insG 3' of 8 (mixed)
RNA 1: CACCCGUGCAAAAAUGCAGGGGUCUAAAACUGAGCGGAUAACCUCUCUAUGG
RNA 2: GGGAAUGGAUCCACAUCUACGAAUUCGUACCAUAGCAGAGGUUAUGCCGCUCACCGAGAUCGGAAGAGCACACGU
B21: target 1 insA 3' of 6,insU 3' of 6 (mixed)
RNA 1: CACCCGUGCAAAAAUGCAGGGGUCUAAAACUGAGCGGAUAACCUCUCUAUGG
RNA 2: GGGAAUGGAUCCACAUCUACGAAUUCGUACCAUAGAGAGGUUAUCCAUGCUCACCGAGAUCGGAAGAGCACACGU
B22: target 1 insA 3' of 22,insG 3' of 9 (mixed)
RNA 1: CACCCGUGCAAAAAUGCAGGGGUCUAAAACUGAGCGGAUAACCUCUCUAUGG
RNA 2: GGGAAUGGAUCCACAUCUACGAAUUCGUACACAUAGAGAGGUUAGUCCGCUCACCGAGAUCGGAAGAGCACACGU
B23: target 1 insU 3' of 20,insA 3' of 8 (mixed)
RNA 1: CACCCGUGCAAAAAUGCAGGGGUCUAAAACUGAGCGGAUAACCUCUCUAUGG
RNA 2: GGGAAUGGAUCCACAUCUACGAAUUCGUACCAUUAGAGAGGUUAUACCGCUCACCGAGAUCGGAAGAGCACACGU
B24: target 1 C7A,U19A (mixed)
RNA 1: CACCCGUGCAAAAAUGCAGGGGUCUAAAACUGAGCGGAUAACCUCUCUAUGG
RNA 2: GGGAAUGGAUCCACAUCUACGAAUUCGUACCAAAGAGAGGUUAUACGCUCACCGAGAUCGGAAGAGCACACGU
B25: target 1 C6A,G15C (mixed)
RNA 1: CACCCGUGCAAAAAUGCAGGGGUCUAAAACUGAGCGGAUAACCUCUCUAUGG
RNA 2: GGGAAUGGAUCCACAUCUACGAAUUCGUACCAUAGACAGGUUAUCAGCUCACCGAGAUCGGAAGAGCACACGU
B26: target 1 insG 3' of 1 (mixed)
RNA 1: CACCCGUGCAAAAAUGCAGGGGUCUAAAACUGAGCGGAUAACCUCUCUAUGG
RNA 2: GGGAAUGGAUCCACAUCUACGAAUUCGUACCAUAGAGAGGUUAUCCGCUCAGCCGAGAUCGGAAGAGCACACGU
B27: target 1 insA 3' of 22,insA 3' of 3 (mixed)
RNA 1: CACCCGUGCAAAAAUGCAGGGGUCUAAAACUGAGCGGAUAACCUCUCUAUGG
RNA 2: GGGAAUGGAUCCACAUCUACGAAUUCGUACACAUAGAGAGGUUAUCCGCUACACCGAGAUCGGAAGAGCACACGU

This data set concerns the target T1, EsCas13d, nuclease-dead. Briefly: crRNA (strand 1, pre-loaded); Mg2+; 40 mM Tris-HCl pH 7.5, 150 mM NaCl, 6 mM MgCl2, 1 mM DTT, 0.1% Tween-20, 0.2 mg/ml BSA; 25 C; 10 min per concentration, then washed. The settings on record: tags: His6-TwinStrep-SUMO cleaved; N-terminal SNAP kept (SNAP-Surface 488); label: 3' end held by stalled T7 RNA polymerase.
For B1, the Kd came to 5.28 ± 0.32 nM. The figure for B2 is 6.6 ± 0.8 nM; for B3 it is 62 ± 23 nM. The value for B4 was ~60 nM; that for B5 was 19 ± 4 nM. With B6, the Kd is 80 ± 40 nM. The value for B7 was 7.6 ± 0.7 nM. The figure for B8 is 3.4 ± 0.5 nM; for B9 it is 57 ± 12 nM. The figure for B10 is 100 ± 40 nM; for B11 it is 57 ± 12 nM; for B12 it is 99 ± 14 nM. The molecule B13 showed a dissociation constant (Kd) of 23 ± 2 nM. The figure for B14 is 74 ± 22 nM. Consider B15, for which the affinity, expressed as Kd, was 7.01 ± 0.33 nM. The value for B16 was 51 ± 8 nM; that for B17 was 3.82 ± 0.29 nM; that for B18 was 38 ± 14 nM. The figure for B19 is 32 ± 1.6 nM; for B20 it is 58 ± 16 nM; for B21 it is 28.9 ± 1.4 nM. The value for B22 was 19.6 ± 1 nM.

For B23, the dissociation constant (Kd) came out at 25.3 ± 2 nM. Molecule B24 returned a Kd of 48 ± 5 nM. The value for B25 was 56 ± 6 nM; that for B26 was 9 ± 0.7 nM; that for B27 was 11.1 ± 0.6 nM.
